The values that follow come from the supplement of paper PMC9112550, “Optimization of the antimicrobial peptide Bac7 by deep mutational scanning” (BMC Biology, 2022).
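Further: peptides expressed intracellularly from a pBAD plasmid library in pooled LB shake-flask culture, induced with 0.3% L-arabinose, DNA abundance read by NGS, three biological replicates, DESeq2 with apeglm shrinkage.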

The test system of the data set is Escherichia coli TOP10. Nature of the data set: shrunken log2 fold change of peptide-encoding DNA abundance (4.5 h post-induction vs induction); higher = less antimicrobial activity (less host growth inhibition). The conditions noted are these: time post-induction: 4.5 h; library: site-saturation at positions 5, 18, 19, 20.
RRIRGRPPRLPRPRPRPPKCPRP: the “shrunken log2 fold change” value was 1.63.
For the sequence RRIRARPPRLPRPRPRPKAVPRP, the “shrunken log2 fold change” value came to 0.706.
For RRIRFRPPRLPRPRPRPEPAPRP, the “shrunken log2 fold change” value is 0.669.
With RRIRVRPPRLPRPRPRPDNNPRP, the “shrunken log2 fold change” value was -0.796.
With RRIRCRPPRLPRPRPRPEEHPRP, the “shrunken log2 fold change” value was -0.0578.
For RRIRIRPPRLPRPRPRPTQFPRP, the “shrunken log2 fold change” value was 0.000325.
For RRIRRRPPRLPRPRPRPRFSPRP, the “shrunken log2 fold change” value is 0.425.
For RRIRIRPPRLPRPRPRPLHHPRP, the “shrunken log2 fold change” value was -0.148.
Next, RRIRVRPPRLPRPRPRPLWTPRP: 0.0846; RRIRWRPPRLPRPRPRPVCNPRP: 0.0983; RRIRMRPPRLPRPRPRPTCMPRP: 0.262.
For RRIRRRPPRLPRPRPRPSNAPRP, the “shrunken log2 fold change” value was 0.204.
RRIRHRPPRLPRPRPRPVKKPRP: the “shrunken log2 fold change” value came to 0.0327.
Consider RRIRARPPRLPRPRPRPWVIPRP, for which the “shrunken log2 fold change” value was -0.296.
Turning to RRIRMRPPRLPRPRPRPCDHPRP, the “shrunken log2 fold change” value stood at 0.00316.
Take RRIRWRPPRLPRPRPRPFEMPRP: the “shrunken log2 fold change” value was -0.116.
With RRIRIRPPRLPRPRPRPQIQPRP, the “shrunken log2 fold change” value was -0.235.
In the case of RRIRIRPPRLPRPRPRPMDIPRP, the “shrunken log2 fold change” value is -0.911.
As to RRIRPRPPRLPRPRPRPETPPRP, the “shrunken log2 fold change” value was determined as 0.152.
Turning to RRIRARPPRLPRPRPRPVITPRP, the “shrunken log2 fold change” value was -0.021.
Regarding RRIRCRPPRLPRPRPRPKMLPRP, the “shrunken log2 fold change” value was -0.0357.
For the sequence RRIRPRPPRLPRPRPRPMHTPRP, the “shrunken log2 fold change” value was -0.0538.
For the sequence RRIRKRPPRLPRPRPRPIENPRP, the “shrunken log2 fold change” value is -0.0721.
As for RRIRLRPPRLPRPRPRPQEDPRP, the “shrunken log2 fold change” value is -0.0336.
As to RRIRSRPPRLPRPRPRPNRIPRP, the “shrunken log2 fold change” value was -0.304.
Turning to RRIRQRPPRLPRPRPRPDNSPRP, the “shrunken log2 fold change” value was -0.0422.
RRIRRRPPRLPRPRPRPTDSPRP: the “shrunken log2 fold change” value was found to be 0.485.
Turning to RRIRTRPPRLPRPRPRPNKCPRP, the “shrunken log2 fold change” value was -0.314.
Turning to RRIRHRPPRLPRPRPRPEKHPRP, the “shrunken log2 fold change” value was 0.0511.
Next, RRIRNRPPRLPRPRPRPYEKPRP: -0.0332.
Turning to RRIRNRPPRLPRPRPRPQGEPRP, the “shrunken log2 fold change” value was -0.422.
Regarding RRIRTRPPRLPRPRPRPWYIPRP, the “shrunken log2 fold change” value is -0.146.
The result for RRIRPRPPRLPRPRPRPAPYPRP reads -0.0601; that for RRIRMRPPRLPRPRPRPHCAPRP, 1.76; that for RRIRKRPPRLPRPRPRPLGRPRP, 1.35.
As to RRIRDRPPRLPRPRPRPTSDPRP, the “shrunken log2 fold change” value stood at 0.347.
With RRIRCRPPRLPRPRPRPLSRPRP, the “shrunken log2 fold change” value was -0.143.
The result for RRIRIRPPRLPRPRPRPYQAPRP reads -0.342.
For the sequence RRIRPRPPRLPRPRPRPKTKPRP, the “shrunken log2 fold change” value was found to be 0.00358.
Next, RRIRDRPPRLPRPRPRPHAKPRP: 0.0435.
On to RRIRSRPPRLPRPRPRPAYTPRP, for which the “shrunken log2 fold change” value worked out at 0.0457.
Regarding RRIRERPPRLPRPRPRPNAHPRP, the “shrunken log2 fold change” value was 0.0249.
The result for RRIRKRPPRLPRPRPRPSTKPRP reads 0.143; that for RRIRCRPPRLPRPRPRPHHAPRP, 0.0208.
Take RRIRCRPPRLPRPRPRPNECPRP: the “shrunken log2 fold change” value is -0.37.
As to RRIRDRPPRLPRPRPRPHLTPRP, the “shrunken log2 fold change” value came out at 0.176.
With RRIRPRPPRLPRPRPRPWLWPRP, the “shrunken log2 fold change” value came out at 0.0404.
For RRIRIRPPRLPRPRPRPSQVPRP, the “shrunken log2 fold change” value was -0.186.
The result for RRIRPRPPRLPRPRPRPGQSPRP reads 0.421.
In the case of RRIRKRPPRLPRPRPRPPLIPRP, the “shrunken log2 fold change” value is 0.285.
RRIRDRPPRLPRPRPRPIHKPRP: the “shrunken log2 fold change” value is -0.275.
Next, RRIRERPPRLPRPRPRPDTKPRP: -0.00108; RRIRFRPPRLPRPRPRPWYGPRP: -0.138.
Next, RRIRARPPRLPRPRPRPKVMPRP: 0.176.
For the sequence RRIRKRPPRLPRPRPRPPWSPRP, the “shrunken log2 fold change” value amounted to 0.154.
Take RRIRARPPRLPRPRPRPQHTPRP: the “shrunken log2 fold change” value came out at 0.156.
The result for RRIRPRPPRLPRPRPRPQNMPRP reads -0.358; that for RRIRNRPPRLPRPRPRPDFCPRP, 0.0953; that for RRIRKRPPRLPRPRPRPKFNPRP, -0.0876.
On to RRIRLRPPRLPRPRPRPEHPPRP, for which the “shrunken log2 fold change” value was -0.00635.
Next, RRIRDRPPRLPRPRPRPIKEPRP: -0.015; RRIRIRPPRLPRPRPRPNGAPRP: 0.0157.
Take RRIRHRPPRLPRPRPRPKLCPRP: the “shrunken log2 fold change” value is -0.114.
On to RRIRDRPPRLPRPRPRPKVPPRP, for which the “shrunken log2 fold change” value was -0.00145.
For the sequence RRIRMRPPRLPRPRPRPYHAPRP, the “shrunken log2 fold change” value was -0.387.
On to RRIRKRPPRLPRPRPRPIWGPRP, for which the “shrunken log2 fold change” value is -0.0432.
RRIRKRPPRLPRPRPRPDDVPRP: the “shrunken log2 fold change” value turned out to be 2.03.
For RRIRLRPPRLPRPRPRPFPHPRP, the “shrunken log2 fold change” value was -0.0537.
Turning to RRIRSRPPRLPRPRPRPLSDPRP, the “shrunken log2 fold change” value was -0.0692.
In the case of RRIRWRPPRLPRPRPRPMELPRP, the “shrunken log2 fold change” value came to 1.2.
On to RRIRCRPPRLPRPRPRPGWGPRP, for which the “shrunken log2 fold change” value came out at 0.42.
With RRIRCRPPRLPRPRPRPMYSPRP, the “shrunken log2 fold change” value was -0.386.
The result for RRIRQRPPRLPRPRPRPLGDPRP reads 0.0938.
As for RRIRHRPPRLPRPRPRPFWKPRP, the “shrunken log2 fold change” value is -0.0724.
Regarding RRIRGRPPRLPRPRPRPCTEPRP, the “shrunken log2 fold change” value was determined as 0.509.
Regarding RRIRNRPPRLPRPRPRPDESPRP, the “shrunken log2 fold change” value is -0.109.
Consider RRIRTRPPRLPRPRPRPVAVPRP, for which the “shrunken log2 fold change” value amounted to 0.0298.
On to RRIRPRPPRLPRPRPRPRYDPRP, for which the “shrunken log2 fold change” value was found to be 0.0231.
Regarding RRIRWRPPRLPRPRPRPEFSPRP, the “shrunken log2 fold change” value was found to be 0.109.
The result for RRIRCRPPRLPRPRPRPSAMPRP reads 0.272; that for RRIRHRPPRLPRPRPRPATLPRP, -0.24.
The result for RRIRQRPPRLPRPRPRPHIEPRP reads -0.58.
For RRIRPRPPRLPRPRPRPQGVPRP, the “shrunken log2 fold change” value is 0.07.
Turning to RRIRPRPPRLPRPRPRPKYHPRP, the “shrunken log2 fold change” value was -0.317.
Next, RRIRCRPPRLPRPRPRPKCCPRP: 0.0554; RRIRWRPPRLPRPRPRPSWHPRP: 0.0186; RRIRNRPPRLPRPRPRPFDVPRP: -0.0429.
Next, RRIRLRPPRLPRPRPRPYCGPRP: -0.0687; RRIRFRPPRLPRPRPRPYDHPRP: -0.0263.
The result for RRIRDRPPRLPRPRPRPNHHPRP reads -0.539; that for RRIRGRPPRLPRPRPRPMDHPRP, -0.137; that for RRIRLRPPRLPRPRPRPFLTPRP, -0.434.
With RRIRRRPPRLPRPRPRPDAMPRP, the “shrunken log2 fold change” value was found to be 0.336.
RRIRHRPPRLPRPRPRPQMAPRP: the “shrunken log2 fold change” value was -0.191.
For the sequence RRIRNRPPRLPRPRPRPTPSPRP, the “shrunken log2 fold change” value is 0.338.
Take RRIRNRPPRLPRPRPRPRESPRP: the “shrunken log2 fold change” value is -0.0379.
In the case of RRIRVRPPRLPRPRPRPMPHPRP, the “shrunken log2 fold change” value is -0.227.
The result for RRIRTRPPRLPRPRPRPYSTPRP reads -0.0702.
As to RRIRLRPPRLPRPRPRPAHYPRP, the “shrunken log2 fold change” value is -0.147.
Next, RRIRNRPPRLPRPRPRPSYHPRP: -0.273; RRIRLRPPRLPRPRPRPIPLPRP: 0.0264.
For the sequence RRIRYRPPRLPRPRPRPGMSPRP, the “shrunken log2 fold change” value was -0.137.
With RRIRNRPPRLPRPRPRPHEGPRP, the “shrunken log2 fold change” value is -0.015.
Next, RRIRWRPPRLPRPRPRPCNSPRP: -0.281; RRIRKRPPRLPRPRPRPKVVPRP: 0.223.
Turning to RRIRMRPPRLPRPRPRPISPPRP, the “shrunken log2 fold change” value amounted to 0.0263.
Consider RRIRVRPPRLPRPRPRPEGIPRP, for which the “shrunken log2 fold change” value is -0.0615.
As to RRIRWRPPRLPRPRPRPQRNPRP, the “shrunken log2 fold change” value was found to be 0.0121.
For the sequence RRIRTRPPRLPRPRPRPLDYPRP, the “shrunken log2 fold change” value is -2.42.
With RRIRMRPPRLPRPRPRPTLTPRP, the “shrunken log2 fold change” value was found to be 1.4.
Turning to RRIRDRPPRLPRPRPRPQDRPRP, the “shrunken log2 fold change” value was -0.0933.
As for RRIRARPPRLPRPRPRPHVHPRP, the “shrunken log2 fold change” value is -0.192.
As to RRIRCRPPRLPRPRPRPGTAPRP, the “shrunken log2 fold change” value is 0.292.
For RRIRDRPPRLPRPRPRPRVIPRP, the “shrunken log2 fold change” value is -0.305.
In the case of RRIRMRPPRLPRPRPRPLKQPRP, the “shrunken log2 fold change” value worked out at 0.513.
As for RRIRTRPPRLPRPRPRPQQFPRP, the “shrunken log2 fold change” value was -0.0175.
Take RRIRMRPPRLPRPRPRPPIEPRP: the “shrunken log2 fold change” value is 0.309.
For the sequence RRIRERPPRLPRPRPRPKLHPRP, the “shrunken log2 fold change” value was -0.0464.
Take RRIRPRPPRLPRPRPRPDIVPRP: the “shrunken log2 fold change” value is -0.0822.
The result for RRIRNRPPRLPRPRPRPQEAPRP reads -0.0152.
As for RRIRWRPPRLPRPRPRPFGWPRP, the “shrunken log2 fold change” value stood at 0.118.
Next, RRIRYRPPRLPRPRPRPVELPRP: -0.151; RRIRYRPPRLPRPRPRPWFQPRP: -0.00061.
The result for RRIRSRPPRLPRPRPRPISYPRP reads -0.117.
The result for RRIRNRPPRLPRPRPRPEDSPRP reads -0.0784.
